Results on two molecules are retold here after patent US20170022281A1 (AbbVie / Abbott, published 2017).

One assay has as its target T1, human PRLR on cells (human, UniProt P16471 25-622).
T1 construct: Endogenous on T47D cells, transfected in Baf3-hPRLR cells; also called hPRLR; T47D cells
T1 sequence: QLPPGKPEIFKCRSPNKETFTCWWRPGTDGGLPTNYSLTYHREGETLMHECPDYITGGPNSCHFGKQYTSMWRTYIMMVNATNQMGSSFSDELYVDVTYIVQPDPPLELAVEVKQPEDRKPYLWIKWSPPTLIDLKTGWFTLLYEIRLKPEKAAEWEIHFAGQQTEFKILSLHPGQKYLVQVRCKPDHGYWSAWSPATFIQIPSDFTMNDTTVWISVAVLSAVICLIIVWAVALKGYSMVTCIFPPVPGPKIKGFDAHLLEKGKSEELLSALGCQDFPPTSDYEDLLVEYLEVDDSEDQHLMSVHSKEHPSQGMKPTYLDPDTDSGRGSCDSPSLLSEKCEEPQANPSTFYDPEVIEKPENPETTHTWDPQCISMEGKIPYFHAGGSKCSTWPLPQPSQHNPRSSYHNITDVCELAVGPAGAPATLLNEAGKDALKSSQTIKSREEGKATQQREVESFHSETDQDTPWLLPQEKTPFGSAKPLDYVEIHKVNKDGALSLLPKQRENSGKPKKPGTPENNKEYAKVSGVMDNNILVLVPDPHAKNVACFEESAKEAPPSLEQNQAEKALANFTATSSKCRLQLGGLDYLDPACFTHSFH
In words: FACS T47D 10 ug/mL.

Assay [1] concerns the target T2, rat PRLR on Nb2-11 rat lymphoma cells (rat, UniProt P05710 20-610).
T2 construct: whole, on cells
T2 sequence (looked up): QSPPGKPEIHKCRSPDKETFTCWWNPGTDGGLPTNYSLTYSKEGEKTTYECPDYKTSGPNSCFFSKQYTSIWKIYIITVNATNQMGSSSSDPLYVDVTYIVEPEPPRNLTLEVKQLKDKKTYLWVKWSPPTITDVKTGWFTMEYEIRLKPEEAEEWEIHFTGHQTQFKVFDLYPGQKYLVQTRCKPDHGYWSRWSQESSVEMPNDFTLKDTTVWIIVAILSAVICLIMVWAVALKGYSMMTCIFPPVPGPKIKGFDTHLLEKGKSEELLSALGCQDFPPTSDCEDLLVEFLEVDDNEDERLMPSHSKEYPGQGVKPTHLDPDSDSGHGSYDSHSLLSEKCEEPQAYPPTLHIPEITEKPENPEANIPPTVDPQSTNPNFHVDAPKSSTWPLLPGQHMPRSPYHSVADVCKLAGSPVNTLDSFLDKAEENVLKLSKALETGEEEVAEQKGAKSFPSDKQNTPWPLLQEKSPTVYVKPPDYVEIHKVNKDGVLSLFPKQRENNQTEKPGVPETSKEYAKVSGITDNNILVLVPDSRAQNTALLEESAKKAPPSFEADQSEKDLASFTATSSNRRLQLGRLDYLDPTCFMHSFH
In words: FACS Nb2-11 20 ug/mL. The protocol: (§1) Nb2-11 and Baf3-xPRLR cells were resuspended in FACS buffer (PBS+1% FBS) at 2 millions cells/mL. Cells were added to round bottom 96-well plate (100 uL/well) and treated with testing PRLR antibodies for 1 hr at 4 C. Cells were then washed with FACS buffer twice and incubated with 2nd antibody conjugated to ALEXA488 (Invitrogen) for 1 hr at 4 C. After two washes in FACS buffer, cells were resuspended in 1% formaldehyde in PBS. Cells were analyzed using LSRII flowcytometer.

Assay [2] has as its target T3, mouse PRLR on Baf3-mPRLR cells (mouse, UniProt Q08501 20-608).
T3 construct: whole, on cells
T3 sequence (looked up): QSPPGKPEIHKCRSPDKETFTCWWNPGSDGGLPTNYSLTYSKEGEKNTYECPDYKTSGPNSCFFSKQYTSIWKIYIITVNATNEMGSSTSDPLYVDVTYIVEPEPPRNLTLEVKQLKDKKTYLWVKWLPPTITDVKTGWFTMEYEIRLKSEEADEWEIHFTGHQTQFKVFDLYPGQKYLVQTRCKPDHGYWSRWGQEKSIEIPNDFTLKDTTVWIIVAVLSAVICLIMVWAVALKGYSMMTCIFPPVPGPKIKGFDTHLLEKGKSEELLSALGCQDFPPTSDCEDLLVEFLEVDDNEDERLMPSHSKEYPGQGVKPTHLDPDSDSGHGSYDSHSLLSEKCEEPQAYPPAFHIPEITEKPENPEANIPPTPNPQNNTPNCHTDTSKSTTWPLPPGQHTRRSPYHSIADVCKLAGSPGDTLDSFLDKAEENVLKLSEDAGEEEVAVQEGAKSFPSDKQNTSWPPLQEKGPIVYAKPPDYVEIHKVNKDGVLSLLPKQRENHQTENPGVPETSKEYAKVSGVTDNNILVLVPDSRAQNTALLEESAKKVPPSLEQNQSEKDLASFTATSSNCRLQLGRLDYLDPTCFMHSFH
In words: FACS Baf3-mPRLR 10 ug/mL. The protocol: as §1

In assay [3] the target is T4, mouse PRLR ECD-Fc fusion protein (mouse, UniProt Q08501 20-229).
T4 construct: extracellular domain; not shown: Fc region (captured by goat anti-human Fc)
T4 sequence (looked up): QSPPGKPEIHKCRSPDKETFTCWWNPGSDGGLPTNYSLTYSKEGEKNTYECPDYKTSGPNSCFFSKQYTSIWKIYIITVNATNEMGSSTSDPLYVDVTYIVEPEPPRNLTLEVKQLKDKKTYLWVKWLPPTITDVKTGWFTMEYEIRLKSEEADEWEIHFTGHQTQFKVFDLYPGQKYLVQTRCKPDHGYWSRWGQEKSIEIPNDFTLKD
Put plainly: ELISA on ECD. The procedure, abridged: (§2)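 EC50 values derive from fitted binding curves of antibody serial dilutions (1 h) on captured PRLR. Detection used an HRP-conjugated secondary (1 h), TMB development for 3–5 min, an H₂SO₄ stop and a 450 nm read, with all steps in Tween/PBS pH 7.4 buffer.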

Assay [4] addresses T5, rat PRLR ECD-Fc fusion protein (rat, UniProt P05710 20-229).
T5 construct: extracellular domain; not shown: Fc region (captured by goat anti-human Fc)
T5 sequence (looked up): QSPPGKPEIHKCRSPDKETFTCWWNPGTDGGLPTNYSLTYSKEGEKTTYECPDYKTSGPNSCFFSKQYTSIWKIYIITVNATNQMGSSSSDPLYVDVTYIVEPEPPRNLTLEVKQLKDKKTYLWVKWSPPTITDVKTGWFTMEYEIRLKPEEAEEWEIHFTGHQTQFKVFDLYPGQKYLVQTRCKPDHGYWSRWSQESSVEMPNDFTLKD
In words: ELISA on ECD. The procedure, abridged:
as §2
A general note: ELISA stands for enzyme-linked immunosorbent assay.

B1: Ab12 (antibody, V domains shown)
VH: DVQLQESGPGLVKPSQSLSLTCTVTGYSITSDYAWNWIRQFPGNKLEWMGYIGYSGRTSFNPSLKSRISITRDTSKNQFFLQLNSVTTEDTATYYCARGGFAMDYWGQGTSVTVSS
VL: QIVLTQSPGIMSASPGEKVTMTCSASSSVTYMYWYQQKPRSSPKPWIYLTSNLASGVPARFSGSGSGTSYSLTISSMEAEDGATYYCQQWSSTPPLTFGGGTKLELN
notes: murine monoclonal, isotype G2a; reported as PRLR agonist; also called murine Ab12
The term EC50 denotes the concentration that produces a half-maximal response. Lower therefore signals a more potent agent. Take B1: the “FACS GeoMean-neg” value is 1680 with human PRLR on cells, 17 in assay [1] and 90 in assay [2]. Further, the values for the EC50 in assay [3] and in assay [4] were 0.121 nM and 0.116 nM, respectively.

B2: Ab11 (antibody, V domains shown)
VH: EVKLVESGGGLVQPGGSLKLSCAASGFTFSDYYMFWVRQTPEKSLEWVAYISNGGGSTYYPDTVKGRFTISRDNAKNTLYLQMSRLKSEDTAMYYCSRQLFYYGSRGAMGYWGQGTSVTVSS
VL: DVLMTQTPLSLPVSLGDQASISCRSSQSIVHSNGNTYLEWYLQKPGQSPKLLIYKVSNRFSGVPDRFSGSGSGTDFTLKISRVEAEDLGVYYCFQGSHVPFTFGSGTKLEIK
notes: murine monoclonal, isotype G1; also called murine Ab11
On to B2, for which the “FACS GeoMean-neg” value with human PRLR on cells is 2220; in assay [1], 94; in assay [2], 25. Further, the EC50 in assay [3] was 0.086 nM; in assay [4], 0.087 nM.
